Series [1] deals with the molecule itself. Description: AUC.
Series [2] concerns the molecule itself. Description: AUC. The source holds these as a separate data set.
The series “crystal structure” concerns the molecule itself. In words: crystal structure.

This is an account of results in PMC5499577 (Nucleic Acids Research, 2017).

Like-named read-outs stand apart in the source and are kept apart here. Some results are limits rather than exact numbers.

B1: LI Int with the coiled-coil motif deleted, IntΔCC (Δ342-416) (enzyme, Listeria innocua (prophage), UniProt Q928V6 1-452, looked up)
chain: MKAAIYIRVSTQEQVENYSIQAQTEKLTALCRSKDWDVYDTFIDGGYSGSNMNRPALNEMLSKLHEIDAVVVYRLDRLSRSQKDTITLIEEYFLKNNVEFVSLSETLDTSSPFGRAMIGILSVFAQLERETIRDRMVMGKIKRIEAGLPLTTAKGRTFGYDVIDTKLYINEEEAKQLRLIYDIFEEEQSITFLQKRLKKLGFKVRTYNRYNNWLTNDLYCGYVSYKDKVHVKGIHEPIISEEQFYRVQEIFSRMGKNPNMNKESASLLNNLVVCSKCGLGFVHRRKDTVSRGKKYHYRYYSCKTYKHTHELEKCGNKIWRADKLEELIIDRVNNYSFASRNATVDFNSLEFREKQLYLKSLINKIYIDGEQVTIEWL
As to B1, in the series “AUC [1]”, the affinity, expressed as Kd, was 5.7 µM and the stoichiometry N (commonly a count of units in the complex or per binding partner) is 2.

B2: LI Int CTD Y369A (133-452) (domain or fragment, Listeria innocua (prophage), UniProt Q928V6 133-452, looked up)
chain: RDRMVMGKIKRIEAGLPLTTAKGRTFGYDVIDTKLYINEEEAKQLRLIYDIFEEEQSITFLQKRLKKLGFKVRTYNRYNNWLTNDLYCGYVSYKDKVHVKGIHEPIISEEQFYRVQEIFSRMGKNPNMNKESASLLNNLVVCSKCGLGFVHRRKDTVSRGKKYHYRYYSCKTYKHTHELEKCGNKIWRADKLEELIIDRVNNYSFASRNIDKEDELDSLNEKLKIEHAKKKRLFDLAINGSYEVSELDSMMNDIDAQINYYEAQIEANEELKKNKKIQENLADLATVDFNSLEFREKQLYLKSLINKIYIDGEQVTIEWL
For the protein B2, in the series “AUC [1]”, the Kd (as a rule, the concentration at which binding is half-saturated) was 289 µM and the “stoichiometry N” value turned out to be 2.

B3: LI Int carboxy-terminal domain, CTD (133-452) (domain or fragment, Listeria innocua (prophage), UniProt Q928V6 133-452, looked up)
chain: RDRMVMGKIKRIEAGLPLTTAKGRTFGYDVIDTKLYINEEEAKQLRLIYDIFEEEQSITFLQKRLKKLGFKVRTYNRYNNWLTNDLYCGYVSYKDKVHVKGIHEPIISEEQFYRVQEIFSRMGKNPNMNKESASLLNNLVVCSKCGLGFVHRRKDTVSRGKKYHYRYYSCKTYKHTHELEKCGNKIWRADKLEELIIDRVNNYSFASRNIDKEDELDSLNEKLKIEHAKKKRLFDLYINGSYEVSELDSMMNDIDAQINYYEAQIEANEELKKNKKIQENLADLATVDFNSLEFREKQLYLKSLINKIYIDGEQVTIEWL
As to B3, in “AUC [1]”, the Kd came to 18.8 µM and the “stoichiometry N” value was found to be 2.

B4: LI Int CTD K362A (133-452) (domain or fragment, Listeria innocua (prophage), UniProt Q928V6 133-452, looked up)
chain: RDRMVMGKIKRIEAGLPLTTAKGRTFGYDVIDTKLYINEEEAKQLRLIYDIFEEEQSITFLQKRLKKLGFKVRTYNRYNNWLTNDLYCGYVSYKDKVHVKGIHEPIISEEQFYRVQEIFSRMGKNPNMNKESASLLNNLVVCSKCGLGFVHRRKDTVSRGKKYHYRYYSCKTYKHTHELEKCGNKIWRADKLEELIIDRVNNYSFASRNIDKEDELDSLNEKLKIEHAKAKRLFDLYINGSYEVSELDSMMNDIDAQINYYEAQIEANEELKKNKKIQENLADLATVDFNSLEFREKQLYLKSLINKIYIDGEQVTIEWL
As for B4, in “AUC [1]”, the Kd was determined as 45.2 µM and the “stoichiometry N” value is 2.

B5: Listeria innocua integrase (LI Int), wild type, full length (enzyme, Listeria innocua (prophage), UniProt Q928V6 1-452, looked up)
chain: MKAAIYIRVSTQEQVENYSIQAQTEKLTALCRSKDWDVYDTFIDGGYSGSNMNRPALNEMLSKLHEIDAVVVYRLDRLSRSQKDTITLIEEYFLKNNVEFVSLSETLDTSSPFGRAMIGILSVFAQLERETIRDRMVMGKIKRIEAGLPLTTAKGRTFGYDVIDTKLYINEEEAKQLRLIYDIFEEEQSITFLQKRLKKLGFKVRTYNRYNNWLTNDLYCGYVSYKDKVHVKGIHEPIISEEQFYRVQEIFSRMGKNPNMNKESASLLNNLVVCSKCGLGFVHRRKDTVSRGKKYHYRYYSCKTYKHTHELEKCGNKIWRADKLEELIIDRVNNYSFASRNIDKEDELDSLNEKLKIEHAKKKRLFDLYINGSYEVSELDSMMNDIDAQINYYEAQIEANEELKKNKKIQENLADLATVDFNSLEFREKQLYLKSLINKIYIDGEQVTIEWL
Regarding B5, in “AUC [1]”, the Kd was at most 0.032 µM and the “stoichiometry N” value is 2.

B6: His6Flag-Smt3-CC-I fusion of the LI Int coiled-coil domain (345-405) (domain or fragment, Listeria innocua (prophage), UniProt Q928V6 345-405, looked up)
chain: EDELDSLNEKLKIEHAKKKRLFDLYINGSYEVSELDSMMNDIDAQINYYEAQIEANEELKK
Take B6: in “AUC [2]”, the Kd amounted to 20.1 µM and the “stoichiometry N” value worked out at 2.

B7: LI Int isolated coiled-coil domain CC-III (349-400) (domain or fragment, Listeria innocua (prophage), UniProt Q928V6 349-400, looked up)
chain: DSLNEKLKIEHAKKKRLFDLYINGSYEVSELDSMMNDIDAQINYYEAQIEAN
In the case of B7, the binding result in “crystal structure” was “binds”.

For SLNEKLKIEHAKKKRLFDLYINGSYEVSELDSMMNDIDAQINYYEAQIEA (domain or fragment, Listeria innocua (prophage), UniProt Q928V6 350-399, looked up) [LI Int isolated coiled-coil domain CC-II (350-399)], the binding result in “crystal structure” was “binds”.
